In publication PMC8641065 (The New phytologist, 2021):

Biological target: T1, HY5-S36A-GFP (Arabidopsis thaliana, UniProt O24646 1-168, S36A)
T1 sequence (looked up): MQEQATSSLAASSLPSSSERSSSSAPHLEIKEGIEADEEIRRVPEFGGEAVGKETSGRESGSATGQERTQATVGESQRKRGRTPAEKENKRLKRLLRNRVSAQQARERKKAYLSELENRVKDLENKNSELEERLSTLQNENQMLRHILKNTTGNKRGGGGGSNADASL
Assay: co-IP

fold of COP1 co-immunoprecipitated, against the HY5-S36D-GFP line: 4 fold
B1: COP1 (constitutive photomorphogenic1), endogenous (natural protein, UniProt P43254 1-675, looked up)
chain: MEEISTDPVVPAVKPDPRTSSVGEGANRHENDDGGSGGSEIGAPDLDKDLLCPICMQIIKDAFLTACGHSFCYMCIITHLRNKSDCPCCSQHLTNNQLYPNFLLDKLLKKTSARHVSKTASPLDQFREALQRGCDVSIKEVDNLLTLLAERKRKMEQEEAERNMQILLDFLHCLRKQKVDELNEVQTDLQYIKEDINAVERHRIDLYRARDRYSVKLRMLGDDPSTRNAWPHEKNQIGFNSNSLSIRGGNFVGNYQNKKVEGKAQGSSHGLPKKDALSGSDSQSLNQSTVSMARKKRIHAQFNDLQECYLQKRRQLADQPNSKQENDKSVVRREGYSNGLADFQSVLTTFTRYSRLRVIAEIRHGDIFHSANIVSSIEFDRDDELFATAGVSRCIKVFDFSSVVNEPADMQCPIVEMSTRSKLSCLSWNKHEKNHIASSDYEGIVTVWDVTTRQSLMEYEEHEKRAWSVDFSRTEPSMLVSGSDDCKVKVWCTRQEASVINIDMKANICCVKYNPGSSNYIAVGSADHHIHYYDLRNISQPLHVFSGHKKAVSYVKFLSNNELASASTDSTLRLWDVKDNLPVRTFRGHTNEKNFVGLTVNSEYLACGSETNEVYVYHKEITRPVTSHRFGSPDMDDAEEEAGSYFISAVCWKSDSPTMLTANSQGTIKVLVLAA
